Laboratory results from the supplement of paper PMC10567573.

B1: SPOPL (parent)
chain: PDDKLTLFCEVSVVQDSVNISGHT

Variants of: B1
Test: protein stability index of a GFP-peptide fusion (GPS, HEK-293T) (PSI 1-6); higher = more stable
Conditions: c terminus: a fixed tail appended
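Further: lentivirally expressed fusions sorted by FACS into six bins by GFP to DsRed ratio, PSI derived from sequencing read proportions per bin multiplied by bin number.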

Point of comparison: PRDKLTLFCEVSVVQDSVNISGHT [D2R], protein stability index 2.53. Against it:
- PDKKLTLFCEVSVVQDSVNISGHT [D3K] — lower, 1.83
- PDHKLTLFCEVSVVQDSVNISGHT [D3H] — lower, 1.47
- PDEKLTLFCEVSVVQDSVNISGHT [D3E] — lower, 2.2
- PDFKLTLFCEVSVVQDSVNISGHT [D3F] — lower, 1.87
- PDCKLTLFCEVSVVQDSVNISGHT [D3C] — lower, 1.75
- PDQKLTLFCEVSVVQDSVNISGHT [D3Q] — lower, 1.95
- PDVKLTLFCEVSVVQDSVNISGHT [D3V] — lower, 1.8
- PDPKLTLFCEVSVVQDSVNISGHT [D3P] — lower, 2.5
- PDLKLTLFCEVSVVQDSVNISGHT [D3L] — lower, 2.11
- PDYKLTLFCEVSVVQDSVNISGHT [D3Y] — lower, 1.97
- PDTKLTLFCEVSVVQDSVNISGHT [D3T] — lower, 1.51
- PDRKLTLFCEVSVVQDSVNISGHT [D3R] — lower, 2.05
- PDWKLTLFCEVSVVQDSVNISGHT [D3W] — lower, 1.73
- PDNKLTLFCEVSVVQDSVNISGHT [D3N] — lower, 2.44
- PDGKLTLFCEVSVVQDSVNISGHT [D3G] — lower, 2.43
- PDMKLTLFCEVSVVQDSVNISGHT [D3M] — lower, 1.93
- PDAKLTLFCEVSVVQDSVNISGHT [D3A] — lower, 2.06
- PDIKLTLFCEVSVVQDSVNISGHT [D3I] — lower, 2.06
- PDSKLTLFCEVSVVQDSVNISGHT [D3S] — lower, 1.79
- PNDKLTLFCEVSVVQDSVNISGHT [D2N] — lower, 1.44
- PEDKLTLFCEVSVVQDSVNISGHT [D2E] — lower, 2.29
- PTDKLTLFCEVSVVQDSVNISGHT [D2T] — lower, 1.38
- PQDKLTLFCEVSVVQDSVNISGHT [D2Q] — higher, 3.11
- PHDKLTLFCEVSVVQDSVNISGHT [D2H] — lower, 2.04
- PGDKLTLFCEVSVVQDSVNISGHT [D2G] — lower, 2.44
- PVDKLTLFCEVSVVQDSVNISGHT [D2V] — higher, 3.9
- PCDKLTLFCEVSVVQDSVNISGHT [D2C] — lower, 1.62
- PSDKLTLFCEVSVVQDSVNISGHT [D2S] — lower, 1.74
- PPDKLTLFCEVSVVQDSVNISGHT [D2P] — higher, 2.71
- PMDKLTLFCEVSVVQDSVNISGHT [D2M] — lower, 1.61
- PFDKLTLFCEVSVVQDSVNISGHT [D2F] — lower, 1.5
- PYDKLTLFCEVSVVQDSVNISGHT [D2Y] — lower, 1.38
- PIDKLTLFCEVSVVQDSVNISGHT [D2I] — lower, 2.02
- PADKLTLFCEVSVVQDSVNISGHT [D2A] — lower, 1.61
- PKDKLTLFCEVSVVQDSVNISGHT [D2K] — lower, 2.02
- PWDKLTLFCEVSVVQDSVNISGHT [D2W] — higher, 3.07
- PLDKLTLFCEVSVVQDSVNISGHT [D2L] — lower, 1.46
- PDDKLTLACEVSVVQDSVNISGHT [F8A] — higher, 3.65
- PDDKLTLTCEVSVVQDSVNISGHT [F8T] — higher, 2.9
- PDDKLTLDCEVSVVQDSVNISGHT [F8D] — higher, 4.94
- PDDKLTLPCEVSVVQDSVNISGHT [F8P] — higher, 4.79
- PDDKLTLICEVSVVQDSVNISGHT [F8I] — lower, 1.3
- PDDKLTLNCEVSVVQDSVNISGHT [F8N] — higher, 4.86
- PDDKLTLCCEVSVVQDSVNISGHT [F8C] — higher, 3.22
- PDDKLTLVCEVSVVQDSVNISGHT [F8V] — lower, 1.97
- PDDKLTLMCEVSVVQDSVNISGHT [F8M] — higher, 2.86
- PDDKLTLHCEVSVVQDSVNISGHT [F8H] — higher, 3.64
- PDDKLTLSCEVSVVQDSVNISGHT [F8S] — higher, 3.96
- PDDKLTLKCEVSVVQDSVNISGHT [F8K] — higher, 3.48
- PDDKLTLLCEVSVVQDSVNISGHT [F8L] — higher, 2.91
- PDDKLTLECEVSVVQDSVNISGHT [F8E] — higher, 4.39
- PDDKLTLGCEVSVVQDSVNISGHT [F8G] — higher, 4.82
- PDDKLTLQCEVSVVQDSVNISGHT [F8Q] — higher, 4.5
- PDDKLTLWCEVSVVQDSVNISGHT [F8W] — lower, 1.62
- PDDKLTLYCEVSVVQDSVNISGHT [F8Y] — lower, 2.08
- PDDKLTLRCEVSVVQDSVNISGHT [F8R] — higher, 2.77
- PDDKLALFCEVSVVQDSVNISGHT [T6A] — lower, 2.15
- PDDKLPLFCEVSVVQDSVNISGHT [T6P] — higher, 3.47
- PDDKLCLFCEVSVVQDSVNISGHT [T6C] — lower, 1.81
- PDDKLDLFCEVSVVQDSVNISGHT [T6D] — higher, 2.84
- PDDKLSLFCEVSVVQDSVNISGHT [T6S] — lower, 2.32
- PDDKLGLFCEVSVVQDSVNISGHT [T6G] — higher, 3.19
- PDDKLELFCEVSVVQDSVNISGHT [T6E] — lower, 2.33
- PDDKLWLFCEVSVVQDSVNISGHT [T6W] — higher, 3.41
- PDDKLYLFCEVSVVQDSVNISGHT [T6Y] — lower, 1.25
- PDDKLMLFCEVSVVQDSVNISGHT [T6M] — lower, 1.79
- PDDKLKLFCEVSVVQDSVNISGHT [T6K] — higher, 3.34
- PDDKLFLFCEVSVVQDSVNISGHT [T6F] — higher, 2.98
- PDDKLLLFCEVSVVQDSVNISGHT [T6L] — lower, 1.73
- PDDKLHLFCEVSVVQDSVNISGHT [T6H] — lower, 2.4
- PDDKLNLFCEVSVVQDSVNISGHT [T6N] — higher, 2.96
- PDDKLILFCEVSVVQDSVNISGHT [T6I] — lower, 1.8
- PDDKLQLFCEVSVVQDSVNISGHT [T6Q] — higher, 2.58
- PDDKLRLFCEVSVVQDSVNISGHT [T6R] — lower, 2.02
- PDDTLTLFCEVSVVQDSVNISGHT [K4T] — lower, 1.53
- PDDSLTLFCEVSVVQDSVNISGHT [K4S] — lower, 2.23
- PDDFLTLFCEVSVVQDSVNISGHT [K4F] — lower, 2.19
- PDDCLTLFCEVSVVQDSVNISGHT [K4C] — lower, 1.56
- PDDLLTLFCEVSVVQDSVNISGHT [K4L] — lower, 2.39
- PDDYLTLFCEVSVVQDSVNISGHT [K4Y] — lower, 2.26
- PDDMLTLFCEVSVVQDSVNISGHT [K4M] — lower, 1.58
- PDDPLTLFCEVSVVQDSVNISGHT [K4P] — lower, 2.27
- PDDELTLFCEVSVVQDSVNISGHT [K4E] — lower, 2.32
- PDDDLTLFCEVSVVQDSVNISGHT [K4D] — higher, 2.81
- PDDALTLFCEVSVVQDSVNISGHT [K4A] — lower, 1.89
- PDDHLTLFCEVSVVQDSVNISGHT [K4H] — lower, 1.95
- PDDGLTLFCEVSVVQDSVNISGHT [K4G] — lower, 2.12
- PDDILTLFCEVSVVQDSVNISGHT [K4I] — lower, 1.48
- PDDQLTLFCEVSVVQDSVNISGHT [K4Q] — lower, 2.16
- PDDNLTLFCEVSVVQDSVNISGHT [K4N] — lower, 1.98
- PDDRLTLFCEVSVVQDSVNISGHT [K4R] — lower, 1.79
- PDDKLTKFCEVSVVQDSVNISGHT [L7K] — higher, 4.78
- PDDKLTFFCEVSVVQDSVNISGHT [L7F] — lower, 1.81
